In assay [1] the target is T1, mIL-13R2-Fc (catalogue number 539-IR-100, R+D Systems) (mouse, UniProt O88786 22-334).
T1 construct: Bought; also called mIL-13Rα2; mouse IL-13 receptor; not shown: Fc part; captured on plates with anti-human IgG
T1 sequence (looked up): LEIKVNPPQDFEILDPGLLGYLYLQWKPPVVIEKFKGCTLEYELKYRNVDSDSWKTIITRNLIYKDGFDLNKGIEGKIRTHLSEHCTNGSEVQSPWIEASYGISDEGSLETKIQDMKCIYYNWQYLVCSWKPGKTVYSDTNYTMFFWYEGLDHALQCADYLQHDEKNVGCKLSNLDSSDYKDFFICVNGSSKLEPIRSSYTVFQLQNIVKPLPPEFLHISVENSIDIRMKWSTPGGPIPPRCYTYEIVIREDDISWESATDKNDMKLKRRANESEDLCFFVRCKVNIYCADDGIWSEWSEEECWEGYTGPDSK
Briefly: ELISA, receptor-Fc captured on anti-human IgG, detection with biotinylated anti-mIL-13. As to the method:
(§1) ELISAs were set up to determine whether cIL-13 could bind to either of the known mouse IL-13 receptors (mIL-13R1 or mIL-13R2). 96-well Maxisorp plates were coated with anti-human IgG (catalogue number I-3382, Sigma Aldrich) in carbonate-bicarbonate buffer overnight at 4° C. Plates were then blocked with 3% BSA/TBST for 1 hour at RT, washed 3 times in TBST, and incubated with mIL-13R1-Fc or mIL-13R2-Fc (catalogue numbers 491-IR-200 and 539-IR-100 respectively, R+D Systems) for 1 hour at RT. After washing, plates were incubated with dilutions of mIL-13 or cIL-13 or GST-cIL-13 for 1 hour at RT, washed again and incubated with biotinylated anti-mIL-13 (catalogue number BAF413, R+D Systems). Following further washing and incubation with streptavidin conjugated horse-radish peroxidase, the plates were developed with 0-phenylenediamine dihydrochloride peroxidase substrate for 30 minutes.

In assay [2] the target is T2, mIL-13R1-Fc (catalogue number 491-IR-200, R+D Systems) (mouse, UniProt O09030 26-340).
T2 construct: Bought; also called mIL-13Rα1; mouse IL-13 receptor; not shown: Fc part; captured on plates with anti-human IgG
T2 sequence (looked up): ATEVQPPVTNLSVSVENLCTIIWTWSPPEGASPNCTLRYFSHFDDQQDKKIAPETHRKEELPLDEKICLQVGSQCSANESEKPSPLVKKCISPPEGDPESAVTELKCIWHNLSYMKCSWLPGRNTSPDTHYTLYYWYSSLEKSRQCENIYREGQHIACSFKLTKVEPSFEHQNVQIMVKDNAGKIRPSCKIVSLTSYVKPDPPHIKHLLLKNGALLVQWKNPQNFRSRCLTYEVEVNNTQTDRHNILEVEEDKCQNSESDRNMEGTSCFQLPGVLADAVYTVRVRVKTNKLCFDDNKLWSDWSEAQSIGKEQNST
Described as above. The procedure: as §1

For assay [3], the target named is T3, human type-2 IL-4 receptor expressed by the human lung fibroblast cell line A549 (human, UniProt P24394 26-825; P78552 22-427).
T3 sequence (looked up) 1: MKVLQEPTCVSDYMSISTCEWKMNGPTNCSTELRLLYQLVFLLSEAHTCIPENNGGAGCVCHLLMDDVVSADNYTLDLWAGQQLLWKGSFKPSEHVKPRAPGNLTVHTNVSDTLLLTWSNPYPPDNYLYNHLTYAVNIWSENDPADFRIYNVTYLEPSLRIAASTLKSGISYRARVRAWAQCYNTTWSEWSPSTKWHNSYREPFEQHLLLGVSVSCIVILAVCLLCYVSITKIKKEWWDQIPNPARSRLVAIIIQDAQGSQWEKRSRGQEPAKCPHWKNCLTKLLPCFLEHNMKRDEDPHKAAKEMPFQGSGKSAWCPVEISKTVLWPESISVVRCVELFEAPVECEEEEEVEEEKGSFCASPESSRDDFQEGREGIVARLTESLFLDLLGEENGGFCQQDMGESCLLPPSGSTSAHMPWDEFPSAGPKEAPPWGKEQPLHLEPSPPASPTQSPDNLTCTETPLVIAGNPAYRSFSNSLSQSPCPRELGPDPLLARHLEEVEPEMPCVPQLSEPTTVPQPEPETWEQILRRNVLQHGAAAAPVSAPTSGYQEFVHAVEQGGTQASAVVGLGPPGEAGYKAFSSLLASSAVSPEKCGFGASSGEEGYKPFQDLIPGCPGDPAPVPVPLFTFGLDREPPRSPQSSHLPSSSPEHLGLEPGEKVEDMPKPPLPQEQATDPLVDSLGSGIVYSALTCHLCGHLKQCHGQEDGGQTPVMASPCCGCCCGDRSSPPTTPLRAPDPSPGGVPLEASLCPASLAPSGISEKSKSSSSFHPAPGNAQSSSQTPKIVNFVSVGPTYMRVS
T3 sequence (looked up) 2: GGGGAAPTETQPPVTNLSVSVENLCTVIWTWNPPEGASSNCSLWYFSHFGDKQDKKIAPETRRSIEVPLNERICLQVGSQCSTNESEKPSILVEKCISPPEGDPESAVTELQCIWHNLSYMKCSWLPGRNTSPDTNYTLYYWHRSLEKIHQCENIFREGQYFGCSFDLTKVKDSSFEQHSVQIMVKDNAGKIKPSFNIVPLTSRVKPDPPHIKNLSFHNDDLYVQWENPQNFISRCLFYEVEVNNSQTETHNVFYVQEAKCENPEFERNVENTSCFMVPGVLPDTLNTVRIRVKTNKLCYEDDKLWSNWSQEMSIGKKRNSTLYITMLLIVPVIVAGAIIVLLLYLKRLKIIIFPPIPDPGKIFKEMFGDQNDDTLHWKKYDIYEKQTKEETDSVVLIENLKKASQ
The assay can be described thus: cell-based or functional assay.

B1: chimaeric IL-13 (free cIL-13 generated from GST-cIL-13 by thrombin cleavage) (ligand)
chain: GPVPRSVSLPLTLRELIEELVNITQDQTPLCNGSMVWSVDLAAGGYCAALESLTNISNCNAIEKTQRMLGGLCNRKAPTTVSSLPDTKIEVAQFVKDLLSYTKQLFRHGPF
notes: also called mouse chimaeric IL-13 vaccine construct
B1: the binding result in assay [1] and in assay [2] was “binds” each time. In addition, in assay [3], the “fold decrease in bioactivity against mIL-13 (STAT6 phosphorylation in A549 cells)” value is about 5 fold.

B2: GST-cIL-13 (genetic fusion protein of glutathione-S-transferase and chimaeric IL-13) (other)
chain: B1 chain
notes: Expressed in E. coli BLR from pGEX4T3-cIL-13; also called GST-cIL-3; not shown: glutathione-S-transferase as encoded by vector pGEX4T3 (Amersham Pharmacia); short spacer which contains the recognition site for thrombin
Regarding B2, the binding result in assay [1] and in assay [2] was “binds” each time.

Source of the values: patent US20030194391A1 (published 2003).
